B1: NBX0340 (VHH)
VHH: QVQLQESGGGLVQAGESLRLSCLAAGRTFSTSTLGWFRQAPGLEREFVAAIRYTSDYTARTTDYADSVKGRFAISRDYIKQAVYLQMNNLKPEDTAVYYCAAAKYGMGYSDPSGYTYWGQGTQVTVSS
B2: NBX0338 (VHH)
VHH: QVQLQESGGGLVQAGDSLRLSCATSGRSFSSYTMGWFRQTPGKEREFVAAISWSGTYYTDSVKGRFTISRDNAKNTVYLQMNSLKPEDTAVYYCAVGSRRLYYSSDINYWGQGTQVTVSS
B3: NBX0339 (VHH)
VHH: B2 VHH with R27L, S28T, F29V, S31R, T76M, V96A, Y102H
B4: NBX0329 (VHH)
VHH: B2 VHH with D16G, R27L, S28T, F29V, S31R, E44D, R70V, T76M, V96A, S105N
B5: NBX0330 (VHH)
VHH: QVQLQESGGGLVQAGGSLRLSCAASSRTFSNYAMAWFRQTPGKEREFLATINGDTTFTIYADSVKGRFTISRDNAKNTLYLQMNSLKAEDTAVYYCAARQWNPTMRERDYGYWGQGTEVTVSS

Positions count from the first letter of the chain named.

The assay addresses T1, Cpa (phospholipase) (Clostridium perfringens, UniProt P0C216 29-398).
T1 sequence: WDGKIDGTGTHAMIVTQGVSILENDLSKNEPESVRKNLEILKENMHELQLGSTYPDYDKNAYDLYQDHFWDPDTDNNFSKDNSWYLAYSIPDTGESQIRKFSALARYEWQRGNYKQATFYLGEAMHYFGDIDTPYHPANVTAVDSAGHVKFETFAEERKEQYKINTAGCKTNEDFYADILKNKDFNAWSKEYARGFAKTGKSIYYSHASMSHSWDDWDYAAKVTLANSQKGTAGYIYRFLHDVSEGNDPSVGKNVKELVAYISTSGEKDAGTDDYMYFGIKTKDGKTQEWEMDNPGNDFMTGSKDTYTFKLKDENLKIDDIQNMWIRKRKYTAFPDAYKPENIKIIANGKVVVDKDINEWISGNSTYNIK
The assay is described as follows: phage ELISA, coated antigen.
Turning to B1, the binding result is recorded as “binds”. With B2, the binding result is recorded as “binds”.

Consider B3, for which the binding result is given as “binds”. Regarding B4, the binding result is “binds”. The value for B5 was “binds”.

Values taken from patent US20210269512A1 (NOVOBIND LIVESTOCK THERAPEUTICS, published 2021).
